Tests used:
[1] = target: T1, biotin-labeled TIGIT protein (co-binding ELISA) (human, UniProt Q495A1 22-141, biotin-labeled (site not stated)); assay: co-binding (sandwich) ELISA: coated human PVRIG protein, antibody titrated, detected with biotin-labeled TIGIT protein 1 ug/mL and SA-HRP, absorbance 450 nm
T1 construct: Whole entry named; also called human TIGIT protein
T1 sequence (looked up): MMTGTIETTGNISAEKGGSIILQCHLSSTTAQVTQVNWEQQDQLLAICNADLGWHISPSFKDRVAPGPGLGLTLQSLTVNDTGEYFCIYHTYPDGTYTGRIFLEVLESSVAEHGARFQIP

[2] = target: T2, human PVRIG expressed on cells (human, UniProt Q6DKI7 41-326); assay: flow cytometry, CHO-huPVRIG cells
T2 construct: whole, on cells; cDNA encoding human PVRIG in pCHO1.0 for CHO cells; also called CHO-huPVRIG cells
T2 sequence (looked up): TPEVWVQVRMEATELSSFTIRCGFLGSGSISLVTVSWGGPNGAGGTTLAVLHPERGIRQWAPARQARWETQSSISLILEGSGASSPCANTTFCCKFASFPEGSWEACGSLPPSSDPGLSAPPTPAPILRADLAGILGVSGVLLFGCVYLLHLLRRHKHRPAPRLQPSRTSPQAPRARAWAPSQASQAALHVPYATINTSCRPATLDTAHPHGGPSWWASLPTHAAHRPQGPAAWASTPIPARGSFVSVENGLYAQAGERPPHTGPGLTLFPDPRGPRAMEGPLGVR
Method: (§1) The overexpressing cells were expanded and adjusted to an appropriate cell density, and added to a 96-well flow cytometry plate. After centrifugation, the cells were added with a gradiently diluted sample to be tested, and incubated at 4° C. for 30 minutes. The cells were washed twice with PBS, and added with a fluorescent secondary antibody correspondingly diluted to an appropriate concentration, then incubated at 4° C. for 30 minutes, and washed twice with PBS. Cells were resuspended with PBS, and detected on a CytoFlex flow cytometer, and the corresponding MFI was calculated. Graphpad software was used for graphical analysis to obtain EC₅₀ values.

[3] = target: T3, human PVRIG protein with mouse IgG2a Fc tag (human; mouse, UniProt Q6DKI7 41-171, limits assumed); assay: flow cytometry, competition: human PVRIG-mouse IgG2a Fc (1 ug/mL) binding to CHO-huCD112 cells
T3 construct: Whole entry named; not shown: mouse IgG2a Fc tag
T3 sequence (looked up): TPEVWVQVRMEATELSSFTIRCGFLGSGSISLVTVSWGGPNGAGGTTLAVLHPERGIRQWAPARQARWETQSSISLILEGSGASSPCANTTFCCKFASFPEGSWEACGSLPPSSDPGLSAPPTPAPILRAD
Method: Specifically, CHO cells overexpressing human CD112 (CHO-huCD112 cells) were generated by transfection of the pCHO1.0 vector (purchased from Invitrogen) with cDNA encoding human CD112 cloned into the multiple cloning site (MCS), followed by pressure screening. […] APC-conjugated goat anti-mouse IgG antibody diluted 100-fold with PBS was added at 100 μL/well, incubated at 4° C. for 30 minutes and washed twice with PBS. Cells were resuspended with PBS at 100 μL/well, and detected on a CytoFlex flow cytometer, and the corresponding MFI was calculated.

[4] = target: T4, cynomolgus PVRIG overexpressed on CHO cells (cynomolgus, UniProt A0A2K5WVV8 1-322); assay: flow cytometry, CHO-cynoPVRIG cells
T4 construct: whole, on cells; also called CHO-cynoPVRIG cells
T4 sequence: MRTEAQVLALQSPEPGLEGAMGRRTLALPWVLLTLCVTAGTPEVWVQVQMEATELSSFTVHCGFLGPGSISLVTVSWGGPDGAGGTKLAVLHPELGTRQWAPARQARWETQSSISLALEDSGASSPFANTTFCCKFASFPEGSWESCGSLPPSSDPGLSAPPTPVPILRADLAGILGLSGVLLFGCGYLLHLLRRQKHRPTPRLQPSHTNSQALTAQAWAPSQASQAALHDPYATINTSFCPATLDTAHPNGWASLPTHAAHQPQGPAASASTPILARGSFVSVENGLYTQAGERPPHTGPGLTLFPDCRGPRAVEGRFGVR
Method: as §1

[5] = target: T5, mouse PVRIG overexpressed on CHO cells (mouse, UniProt A0A1B0GS01 1-234); assay: flow cytometry, CHO-muPVRIG cells
T5 construct: also called CHO-muPVRIG cells
T5 sequence: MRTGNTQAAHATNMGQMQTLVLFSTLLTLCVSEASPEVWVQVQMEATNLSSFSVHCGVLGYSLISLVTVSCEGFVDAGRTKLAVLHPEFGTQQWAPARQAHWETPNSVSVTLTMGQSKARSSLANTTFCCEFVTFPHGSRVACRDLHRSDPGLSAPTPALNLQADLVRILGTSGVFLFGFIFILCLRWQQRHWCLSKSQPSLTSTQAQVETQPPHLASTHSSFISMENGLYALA
Method: as §1

[6] = target: T6, cynomolgus monkey PVRIG-Fc protein (cynomolgus monkey, UniProt Q6DKI7 41-171 (human entry), limits assumed); assay: BLI (ForteBio), antibody on AHQ sensor, 100 nM Fc antigen, bivalent, 1:1 model
T6 construct: no signal peptide limits stated; Bivalent antigen; also called Cynomolgus PVRIG-hFc; not shown: human Fc (hFc)
T6 chain: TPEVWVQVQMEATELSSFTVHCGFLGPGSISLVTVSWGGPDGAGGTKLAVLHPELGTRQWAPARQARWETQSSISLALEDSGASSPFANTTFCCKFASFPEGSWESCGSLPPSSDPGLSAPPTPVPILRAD
Method: The antibody-loaded sensor was continued to be loaded in a high concentration of irrelevant intact antibody for 10 min, saturating the Fc-binding site on the AHQ sensor. The saturated sensor was incubated in 100 nM target antigen to the plateau phase, and then the sensor was transferred to an analysis buffer and incubated for at least 2 minutes for measuring dissociation rate. The kinetic analysis was performed using a 1:1 binding model.

[7] = target: Biotin-labeled mouse PVRIG protein with Mouse IgG2a Fc tag (mouse); assay: competition ELISA: biotin mouse PVRIG-mouse IgG2a Fc binding to coated mouse CD112-his
Method: The coating solution in the ELISA plate was discarded, and the ELISA plate was washed three times with 1×PBST and was blocked with 5% BSA/PBS at 200 μL/well for 2 hours at room temperature. […] The SA-HRP dilution was discarded, the ELISA plate was washed three times with 1×PBST, ELISA Chromogen Solution was added at 100 μL/well and incubated for 1-3 minutes at room temperature, ELISA stopping solution was added at 50 μL/well and the absorbance values were read at 450 nm.

human PVRIG-his protein = target: T7, human PVRIG-his protein (human, UniProt Q6DKI7 41-171, limits assumed); assay: BLI (ForteBio), antibody on AHQ sensor, 100 nM antigen, monovalent, 1:1 model
T7 construct: not shown: his tag
T7 sequence: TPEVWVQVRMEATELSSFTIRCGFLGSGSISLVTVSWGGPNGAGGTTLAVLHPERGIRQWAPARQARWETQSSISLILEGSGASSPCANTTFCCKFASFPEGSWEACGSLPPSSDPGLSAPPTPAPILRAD
Method: The antibody-loaded sensor was incubated in 100 nM target antigen to the plateau phase, and then the sensor was transferred to an analysis buffer and incubated for at least 2 minutes for measuring dissociation rate. The kinetic analysis was performed using a 1:1 binding model.

binding result [1]: no binding (tested: 100 nM) | EC50 [2]: 2.54 nM | IC50 [3]: 1.06 nM | EC50 [4]: 0.844 nM | EC50 [5]: 3.35 nM | Kd [6]: 0.267 nM | IC50 [7]: 0.261 nM | Kd (human PVRIG-his protein): 0.144 nM
B1: anti-PVRIG monoclonal antibody ADI-56127 (antibody, V domains shown)
VH: QVQLVQSGAEVKKPGSSVKVSCKASGGTESVDAISWVRQAPGQGLEWMGDIIPFFDTDYAQKFQGRVTITADESTSTAYMELSSLRSEDTAVYYCAREGGTSWTHFFDLWGRGTLVTVSS
VL: not shown

— patent US20250223354A1 (BIOTHEUS, published 2025)
